Columns and labels:
[1] = target: T1, recombinant human CD25 extracellular protein sequence (rhCD25) (human, UniProt P01589 22-240); test: method not given; upper end of the stated range
T1 construct: also called human CD25 antigen
T1 sequence: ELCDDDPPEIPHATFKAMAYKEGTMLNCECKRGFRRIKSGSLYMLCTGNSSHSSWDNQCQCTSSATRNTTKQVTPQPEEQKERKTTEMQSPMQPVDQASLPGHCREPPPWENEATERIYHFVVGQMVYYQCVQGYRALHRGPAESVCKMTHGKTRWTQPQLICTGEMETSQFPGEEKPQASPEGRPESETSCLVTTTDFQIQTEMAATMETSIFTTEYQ

[2] = target: T2, recombinant human CD25 his tagged (human, UniProt P01589 22-240); test: SPR, Biacore 2000; antibody captured by anti-human antibody, rhCD25-His as analyte, two state fit
T2 construct: also called rhCD25-his tag; not shown: His tag
T2 sequence: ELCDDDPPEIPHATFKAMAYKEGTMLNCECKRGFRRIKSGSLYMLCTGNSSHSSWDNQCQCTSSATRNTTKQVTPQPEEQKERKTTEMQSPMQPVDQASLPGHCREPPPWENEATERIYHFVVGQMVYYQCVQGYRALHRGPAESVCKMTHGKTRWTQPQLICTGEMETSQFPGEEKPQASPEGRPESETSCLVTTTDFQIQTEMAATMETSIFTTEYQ

[3] = target: T3, human CD25 antigen, Sino Biologicals cat no. 10165-H08H (~20% dimer) (human, UniProt P01589 22-213); test: SPR, Biacore T200; antibody captured by anti-human Fab, CD25 as analyte, Two State Reaction fit; column 'Binding strength' (affinity and/or avidity); Sino Biological CD25 (~20% dimer), Two State Reaction fit; affinity and/or avidity
T3 construct: Bought antigen; also called Sino biological (~20% dimer)
T3 sequence: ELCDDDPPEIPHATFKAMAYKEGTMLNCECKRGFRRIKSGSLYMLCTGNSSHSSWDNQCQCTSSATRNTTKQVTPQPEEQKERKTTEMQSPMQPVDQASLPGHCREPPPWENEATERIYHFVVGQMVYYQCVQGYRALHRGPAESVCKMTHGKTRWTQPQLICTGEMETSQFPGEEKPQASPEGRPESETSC
Description: (§1) Binding of CD25 antibodies to human CD25 antigen was investigated by surface plasmon resonance using a BIACORE T200 instrument (GE Healthcare).
(§2) For calculation of KD and kinetic parameters Biacore provided fitting models were used to obtain optimal curve fitting results. The 1:1 Langmuir fit was used for P1AA5872 and the Two State Kinetic fitting for CD25 from Sino Biologicals and R&D Systems.

[4] = target: T4, human CD25 expressed on cells (human, UniProt P01589 22-272); test: cell-based or functional assay
T4 sequence: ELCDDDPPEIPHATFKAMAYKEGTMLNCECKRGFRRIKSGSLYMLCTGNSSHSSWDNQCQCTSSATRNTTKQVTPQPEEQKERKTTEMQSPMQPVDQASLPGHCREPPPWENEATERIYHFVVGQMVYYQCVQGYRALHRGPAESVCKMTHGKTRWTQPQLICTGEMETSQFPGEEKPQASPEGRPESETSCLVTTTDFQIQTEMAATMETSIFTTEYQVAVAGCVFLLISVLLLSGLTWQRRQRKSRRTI

[5] = target: T5, inhouse produced monomeric human CD25 antigen (P1AA5872) (human, UniProt P01589 22-240, limits assumed); test: SPR, Biacore T200; antibody captured by anti-human Fab, monomeric CD25 as analyte, 1:1 Langmuir fit; column 'Binding strength'
T5 construct: also called Inhouse (0% dimer)
T5 sequence: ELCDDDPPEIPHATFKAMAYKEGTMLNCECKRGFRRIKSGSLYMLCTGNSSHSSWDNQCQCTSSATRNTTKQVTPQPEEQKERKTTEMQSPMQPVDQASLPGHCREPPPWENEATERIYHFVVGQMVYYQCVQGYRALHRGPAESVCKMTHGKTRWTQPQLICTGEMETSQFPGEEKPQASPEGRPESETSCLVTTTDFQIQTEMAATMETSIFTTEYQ
Protocol: as §1
(§3) The flow cell was set to 25° C. and the sample compartment to 12° C. The CD25 antibody was captured by injecting a 3 μg/ml solution for 60 sec at a flow rate of 10 μl/min. Association of CD25 antigen was measured by injection of human CD25 solutions for 180 sec at a flow rate of 30 μl/min starting with a concentration of 1000 nM down to 1 nM in 1:10 dilution steps. The dissociation phase was triggered by switching from sample solution injection to running buffer and monitored for up to 600 seconds. The surface was regenerated by washing with two consecutive 1-minute injections of 10mM glycine pH 2.1 (provided by the kit) at a flow rate of 10 μl/min. Bulk refractive index differences were corrected by subtracting the response obtained from an anti-human Fab reference surface; blank injections are also subtracted (=double referencing).
as §2

[6] = target: T4, human CD25 expressed on cells; test: flow cytometry on human in vitro differentiated Treg cells, Alexa Fluor 647 anti-human IgG secondary
Protocol: Binding to CD25 expressing in vitro differentiated Tregs was examined by staining test articles (anti-CD25 primary antibodies) with 30 μg/ml antibodies followed by semi-log dilution series (7-point) for 30 minutes on ice. […] All samples were stained in duplicates. Live cells were gated using FSC vs SSC parameters by flow cytometry during sample acquisition. Mean fluorescence intensity (MFI) of stained cells were plotted on an XY chart, graphing MFI against the log of the concentration, and the data fit to a non-linear regression curve from which the EC50 is calculated.

[7] = target: T4, human CD25 expressed on cells; test: flow cytometry on CD3/CD28 bead activated human Pan T cells, gated on CD4+ T cells
Protocol: (§4) Binding to CD25 expressing activated human and Cynomolgus monkey PMBC was examined by staining test articles (anti-CD25 primary antibodies) with 20 μg/ml antibodies followed by semi-log dilution series (7-point) for 30 minutes on ice. This was followed by staining with a secondary antibody (rabbit anti-human Fcg F(ab′)2—(Jackson ImmunoResearch)) concentration of 5 μg/ml for 30 minutes on ice. All samples were stained in triplicates. To minimize cross-linking induced cell death mediated by binding of the secondary antibody, cell lines were examined in staining cohorts of 4 test articles at a time. Live lymphocytes were gated using FSC vs SSC parameters by flow cytometry during sample acquisition. Mean fluorescence intensity (MFI) of gated CD4⁺ and CD8⁺ T cell subsets were plotted on an XY chart, graphing MFI against the log of the concentration, and the data fit to a non-linear regression curve from which the EC50 was calculated.

[8] = target: T4, human CD25 expressed on cells; test: flow cytometry on CD3/CD28 bead activated human Pan T cells, gated on CD8+ T cells
Protocol: as §4

[9] = target: T6, human CD25 antigen, R&D Systems cat no. 223-2A/CF (~10% dimer) (human, UniProt P01589 22-240, limits assumed); test: SPR, Biacore T200; antibody captured by anti-human Fab, CD25 as analyte, Two State Reaction fit; column 'Binding strength' (affinity and/or avidity)
T6 construct: also called R&D Systems (~10% dimer); huCD25 (IL2R alpha)
T6 sequence: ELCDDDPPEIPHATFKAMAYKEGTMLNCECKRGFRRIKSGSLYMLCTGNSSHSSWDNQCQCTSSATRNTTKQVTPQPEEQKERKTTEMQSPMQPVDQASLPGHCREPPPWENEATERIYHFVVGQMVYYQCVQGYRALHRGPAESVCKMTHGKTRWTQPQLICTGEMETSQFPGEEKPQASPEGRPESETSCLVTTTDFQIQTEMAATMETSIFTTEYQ
Protocol: as §1, §3, §2

[10] = target: T2, recombinant human CD25 his tagged; test: BLI, ForteBio Octet Red96; IgG on AHC sensors, rhCD25-His in solution, 1:1 fit
Protocol: Sensors were equilibrated off-line in assay buffer for 10 min and then monitored on-line for 60 seconds for baseline establishment. […] Then, 1:3 serial dilutions (from 1 uM to 4 nM) of recombinant human CD25 HIS tagged was associated to the loaded IgG for 10 min. Afterwards they were transferred to assay buffer for 6.6 min for off-rate measurement. Kinetics data were fit using a global 1:1 binding model in the ForteBio Data Analysis Software 9.0 with reference subtraction.

[11] = target: T4, human CD25 expressed on cells; test: flow cytometry on Karpas 299 cells, Alexa Fluor 647 anti-human IgG Fc secondary [B); D00021 Figure 21 cont. C), D), E]
Protocol: Binding to CD25 expressing Karpas299 cells was examined by staining test articles (anti-CD25 primary antibodies) with 20 μg/ml antibodies followed by semi-log dilution series (7-point) for 30 minutes on ice. […] All samples were stained in duplicates. Live cells were gated using FSC vs SSC parameters by flow cytometry during sample acquisition. Mean fluorescence intensity (MFI) of stained cells were plotted on an XY chart, graphing MFI against the log of the concentration, and the data fit to a non-linear regression curve from which the EC50 is calculated.

[12] = target: T1, recombinant human CD25 extracellular …; test: method not given; lower end of the stated range
[13] = target: T2, recombinant human CD25 his tagged; test: SPR, Biacore 2000: IgG1 captured on an anti-human antibody CM-5 chip, rhCD25-his tag as analyte
[14] = target: T2, recombinant human CD25 his tagged; test: as above; remark: listed apart in the source
[15] = target: T2, recombinant human CD25 his tagged; test: as above; remark: listed apart in the source
Protocol: Anti-human antibody was initially immobilised across all flow cells in analysis buffer (pH 7.4, 10 mM HEPES, 150 mM NaCl, 3 mM EDTA, 0.05% Tween 20) to an RU of between 12,000-14,000 over 10 minutes. […] Dissociation was performed in analysis buffer over 10 minutes. Regeneration steps between sample concentrations were performed in 10 mM Glycin pH1.7 for 10 minutes. A flow rate of 25 μl/min was maintained throughout the process. Kinetics data were fit using a global two state reaction conformational change analysis software provided by Biacore with reference subtraction.

[16] = target: T2, recombinant human CD25 his tagged; test: as above; remark: listed apart in the source
[17] = target: T2, recombinant human CD25 his tagged; test: as above; remark: listed apart in the source

B1: aCD25-a-686 (antibody, V domains shown)
VH: QVQLVQSGAEVKKPGSSVKVSCKASGGTFSSLAISWVRQAPGQGLEWMGGIIPIFGTANYAQKFQGRVTITADESTSTAYMELSSLRSEDTAVYYCARGGSVSGTLVDFDIWGQGTMVTVSS
VL: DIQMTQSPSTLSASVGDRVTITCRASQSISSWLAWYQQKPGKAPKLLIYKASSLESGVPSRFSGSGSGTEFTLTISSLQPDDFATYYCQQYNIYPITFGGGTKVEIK
notes: not shown: human IgG1 heavy chain constant region (P01857); human kappa light chain constant region (P01834)
Kd [1]: ≤ 10 nM | Kd [2]: 3.2 nM | Kd [3]: 2.5 nM | ADCC of iTregs by IL-2 activated NK cells: EC50 [4]: 0.21 uG/mL | Kd [5]: 244 nM | EC50 (read off the curve) [6]: ~1 µg/mL | EC50 (read off the curve) [7]: ~0.4 µg/mL | EC50 (read off the curve) [8]: ~0.5 µg/mL | Kd [9]: 5.8 nM | Kd [10]: 2.33 nM | EC50 (read off the curve) [11]: ~0.5 µg/mL | Kd [12]: ≥ 0.1 nM

B2: afucosylated aCD25-a-686 (antibody, human IgG1, V domains shown)
VH: QVQLVQSGAEVKKPGSSVKVSCKASGGTFSSLAISWVRQAPGQGLEWMGGIIPIFGTANYAQKFQGRVTITADESTSTAYMELSSLRSEDTAVYYCARGGSVSGTLVDFDIWGQGTMVTVSS
VL: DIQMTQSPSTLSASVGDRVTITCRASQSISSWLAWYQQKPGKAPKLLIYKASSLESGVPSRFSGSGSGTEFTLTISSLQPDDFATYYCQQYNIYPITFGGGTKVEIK
modifications: Fc glycan afucosylated (>99% of a-fucosylation by LC/MS)
ADCC of iTregs by IL-2 activated NK cells: EC50 [4]: 0.01 uG/mL

B3: aCD25-a-686-m5 (antibody, IgG1, V domains shown)
VH: QVQLVQSGAEVKKPGSSVKVSCKASGGTFSSLAIFWVRQAPGQGLEWMGGIIPVFGQANYAQKFQGRVTITVDESTSTAYMELSSLRSEDTAVYYCARGGSVSGTLVDFDIWGQGTMVTVSS
VL: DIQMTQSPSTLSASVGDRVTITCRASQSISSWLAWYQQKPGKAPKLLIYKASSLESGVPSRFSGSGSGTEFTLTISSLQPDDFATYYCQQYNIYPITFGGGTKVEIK
Kd [13]: 0.66 nM

B4: aCD25-a-686-m2 (antibody, IgG1, V domains shown)
VH: QVQLVQSGAEVKKPGSSVKVSCKASGGTFSSLAITWVRQAPGQGLEWMGGIIPIFGDASYAQKFQGRVTITADESTSTAYMELSSLRSEDTAVYYCARGGSVSGTLVDFDIWGQGTMVTVSS
VL: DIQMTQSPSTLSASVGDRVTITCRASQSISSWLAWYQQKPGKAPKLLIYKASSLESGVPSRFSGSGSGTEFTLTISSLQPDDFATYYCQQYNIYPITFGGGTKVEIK
Kd [14]: 1.9 nM

B5: aCD25-a-686-m4 (antibody, IgG1, V domains shown)
VH: QVQLVQSGAEVKKPGSSVKVSCKASGGTFSALAISWVRQAPGQGLEWMGGIIPLFGRANYAQKFQGRVTITADESTSTAYMELSSLRSEDTAVYYCARGGSVSGTLVDFDIWGQGTMVTVSS
VL: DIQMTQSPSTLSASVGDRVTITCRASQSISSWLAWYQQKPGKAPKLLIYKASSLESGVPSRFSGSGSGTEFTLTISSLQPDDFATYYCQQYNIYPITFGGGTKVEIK
Kd [15]: 0.76 nM

B6: aCD25-a-686-m3 (antibody, IgG1, V domains shown)
VH: QVQLVQSGAEVKKPGSSVKVSCKASGGTFSSLAISWVRQAPGQGLEWMGGIIPIFGDANYAQKLQGRVTMTTDTSTSTAYMELRSLRSDDTAVYYCARGGSVSGTLVDFDIWGQGTMVTVSS
VL: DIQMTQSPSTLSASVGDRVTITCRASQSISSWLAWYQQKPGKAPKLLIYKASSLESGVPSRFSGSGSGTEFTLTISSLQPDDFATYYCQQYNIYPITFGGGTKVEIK
Kd [16]: 0.34 nM

B7: aCD25-a-686-m1 (antibody, IgG1, V domains shown)
VH: QVQLVQSGAEVKKPGSSVKVSCKASGGTFSSLAISWVRQAPGQGLEWMGAIIPVFGTASYAQKFQGRVTITADESTSTAYMELSSLRSEDTAVYYCARGGSVSGTLVDFDIWGQGTMVTVSS
VL: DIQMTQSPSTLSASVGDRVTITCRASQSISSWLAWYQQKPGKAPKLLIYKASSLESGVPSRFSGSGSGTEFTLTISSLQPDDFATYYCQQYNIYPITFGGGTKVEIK
notes: also called aCD25-a-686-ml; aCD25-a-686ml
Kd [17]: 0.97 nM

Reference: US20190284287A1 (TUSK THERAPEUTICS, published 2019)
